Source: the nanobody polyreactivity screen of Harvey et al. (2022)

Assay: yeast display, Sf9 membrane polyspecificity reagent, FACS + sequencing; frameworks hold sequencing errors
In short: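 Genes from sorted yeast were amplified by colony PCR, read by MiSeq 2 × 250 sequencing and filtered on CDR length. These cells carried a synthetic nanobody library in Saccharomyces cerevisiae BJ5465 and were sorted by FACS into low and high (top ~1%) gates on anti-HA and streptavidin fluorescence. Polyreactivity is labelled according to the gate of origin.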

| Sequence | polyreactivity (PSR sort gate) |
| --- | --- |
| QVQLVEEGGGLVQAGGSLRLSCAASGRISYYYTMGWYSQAPGKERELVAAISWSGGTTYYADSVKGRFTISRDNAKYTVYLQMYSLKPEDTAVYYCAARDYYTDFHGTRRYDYWGQGTLVTVSS | low polyreactivity |
| QVQLVELGGGLVQAGGSLRLSCAASGSIFSRNTMGWYRQAPGKERELVAGISSSGSRTYYADSVKGRFTISRDNAKNTVYLQMNSLKPEDTAVYYCNARYYWKQAADYNYWGQGTQVTVSS | low polyreactivity |
| QVQLVEPGGGLVQAGGSLRLSCAASGRIFRGYAMGWYRQAPGKVRELVAANSQSGSSTYYADSVKGRFTISRDNAKNTVYLKMNSLKPEDTAVYYCAVKYLKHFGYWGQGTQVTVSS | high polyreactivity |
| QVQLVESAAGLVKAGASLRLSCAPSGSTFYLNAMGGSRQEPGQESEFVAAIRGGGTSTRYADSVKGRFTISRDNAKNSVYLQMNSLKPEDSAVYYCAAGPGGHRYKVGYWGLGTQVTVSS | high polyreactivity |
| QVQLVESAAGLVQAGGSLRLSCAASGFIFHCNAMGWSRQAPGKERELVAAISDTADITHYADSVKGRFTISRDNAKNTVYLQMNSLKPEDTAVYFCNAGSGVQVVWYKPYREYEYWGQGTQVTVSS | low polyreactivity |
| QVQLVESAAGLVQAGGSLRLSCAASGLTFTTYDKGWYTQAPRKQRELFAAISRGGSRTYYADSVKGRFTISRDNAKNTVYLQMNSLKPEDTAVYYGNALTGSFTTYSFDFWGQGTQVTVSS | high polyreactivity |
| QVQLVESAAGLVQAGGSLRLSSAASGSIFGPYAMGWYRQAPGKERELVAVISSGDSTNYADSVKGRFTISRDNAKNTVYLQMNSLKPEDTAVYYCATRYLLYRGGHSLFYHFDYWGQGTQVTVSS | low polyreactivity |
| QVQLVESAARLVQAGGSLRLSCAPSGNIFKGYAMGCYRQAPGKHRELVAAITSGDSTNYADSVKGRFTISRDNAKNTVYLQMNSLKPEDTGVYYCNARYSWWRSRDGSSHRPDGYWGQGTQVTVSS | high polyreactivity |
| QVQLVESAGGFVQAGGSLRLSCAASGLTFYYYAMGWYRQAPGTERELVAAFSTRGTSTYYADSVKGRFTISRDNAKKTVYLQMNSQKPEDTAVYYCAADSYPWGTGGDYWGQGTQVTVSS | high polyreactivity |
| QVQLVESAGGLDQAGGSLRLSCAASGFTFVAYSMGLYRQAPGKERELVADISRGGSTFYADSVKGRFTISRDNAKISVYLQKNSLKPEDSAVYYCASTYIHSYGKFYYWGQGTQVTVSS | low polyreactivity |
| QVQLVESAGGLFQEGGSLRVSCAASGSTFSYYDMGGYRQAPGKERELVAAINSTGITTYADSVKGRFTISRDNAKNTVYLQMNSLKPEDTAVYYCAAYHNYWGPYVWEEDYWGQGTQVTVSS | low polyreactivity |
| QVQLVESAGGLVQAAGSLRLSCDASGFIFGTNAMGWYRQAPGKERELVAAINGRGGGTYYADSVKGRFTISRDNAKNTVYLQMNSLKPEDTAVYYCAASRFDYWGQGTQVTVSS | low polyreactivity |
| QVQLVESAGGLVQAGGSLLLSCAASGFTFYPYAMGWYRQAPGKERELVAAISNGDSTHYADSVKGRFTISRDNAKNTVYLQMTSQKPEDTAVYYCAAPRYPYRCFYSDYDYWGQGTQVTVSS | low polyreactivity |
| QVQLVESAGGLVQAGGSLPLSSAASGRIFVWYAMRWYRQAPGKDRELVAAISISGSSTYYADSVKGRFTISRDNAKNTVYLQMNSLNPEDTAVYYCAARFYSSAYWYDYWGQGTQVTVSS | high polyreactivity |
| QVQLVESAGGLVQAGGSLRLICAASGRIFYLNAMGWYRQAPGKESELVAAINTSCGSTYADSVKWRFTISRDNAKNTVYLQMNSLKPEDTAVYYCNAYLAEVLPLGKGRLYDYWGQGTQVTVSS | low polyreactivity |
| QVQLVESAGGLVQAGGSLRLICAASGSIFDLYAMGWYRQAPGTERELVAASTWSGGSTYYADSVKGRFTISRDNAKNTVYLQMNSLKPEDTAVYYCAAAYVGTQDLVIDYDYWGQGTQVTVSS | low polyreactivity |
| QVQLVESAGGLVQAGGSLRLSCAASARTFGAYAMGWYRQAPGNERELVATITVSGGSTYYADSVKGRFTISRENAKNTVYLPMNSLKPEDTAVYYCAAAYDWWQFYSWTIAYDYWGQGTQVTVSS | low polyreactivity |
| QVQLVESAGGLVQAGGSLRLSCAASGFIFRFNAMGWYRQAPGKERELVAAISWSGSSTYYADSVKGRFTISRDNAKNTVYLQMNSLKPEDTAVYYCATSAFYYKIVKGDFYYWGQGTQVTVSS | high polyreactivity |
| QVQLVESAGGLVQAGGSLRLSCAASGFTFIGYVMGWYRQAPGKERELVAAITSGGDTNYADSVKGRFTISRDNAKNTVYLQMNSLKPEDTAVYYCNKGAYWVEYAYIEGELDYWGQGTQVTVSS | low polyreactivity |
| QVQLVESAGGLVQAGGSLRLSCAASGFTFREYAMGWYRQAPGKERELVADIDWSGGSTYYADSVKGRFTISRDNAKNTFYLQMNSLKPEDTAVYYCAKAYYPGVYWGQGTQVTVSS | high polyreactivity |
| QVQLVESAGGLVQAGGSLRLSCAASGFTFSSYVMGWYRQAPGKARELVAAISSSGARTYYADSVKGRFTISRDNAKNTVYLQMNSLKPEDNADYYCAAENSPRPYDYWGQGTQVTVSS | high polyreactivity |
| QVQLVESAGGLVQAGGSLRLSCAASGGIFVFYAMGWYRQAPGKERELVAAITYRGGSTSYADSVKGRFTISRDHAKNTVYLQLNSVKPEDTAVYYCAAAFYAKGQRYGYWGHGTQVTVSS | high polyreactivity |

| Sequence | polyreactivity (PSR sort gate) |
| --- | --- |
| QVQLVESAGGLVQAGGSLRLSCAASGIIFRPNPLGWYRQAPGKERELVAAISKRGGSTYYADSVKGRFTISRDNAKNTVYLQMNSLKPEDTAVYYCAKRQQQSSGYDYWGQGTQVTVSS | high polyreactivity |
| QVQLVESAGGLVQAGGSLRLSCAASGIIFTPNPMGWYRQAPGKEREFVAAINYGGDTTYYADSVKGRFTISRNNAKNTVYLQMNRLKPEDTAVYYCATDGTTPTPRDAFVRFDHWGQGTQVTVSS | low polyreactivity |
| QVQLVESAGGLVQAGGSLRLSCAASGITFSGYAMGWYRQAPGKERELVAAISWRGVRTYYADSVKGRFTISRDNAKNTVYLQMNSLKPEDTAVYYCAAVRYITKEFYWGQGTQVTVSS | high polyreactivity |
| QVQLVESAGGLVQAGGSLRLSCAASGLIIYYYAMGWYRPAPGKERELVAAISGSSGASTYYADSVKGRFTISRDNAKNTVYLQMNSLKPEDTAVYYCNADWARLWIRSTEFDYWGQGTQVTVSS | low polyreactivity |
| QVQLVESAGGLVQAGGSLRLSCAASGRIFQFYAMGWYRQARGKERELVAVITRRGGSTHYADSVKGRFTISRDTAKNTVYLQMNILKPEDTAVYYCAKVPFHFVSPYDYWGQGTQVTVSS | high polyreactivity |
| QVQLVESAGGLVQAGGSLRLSCAASGRIFSTYAMGWYRQAPGKERELVAAISWRGSSTYYADSVKGRFTISRDHAKNTVYLQMNSLKPEDTAVYYCNADKANRYDWGQGTQVTVSS | high polyreactivity |
| QVQLVESAGGLVQAGGSLRLSCAASGRIFVYYAMGGYRKAPGKERELVAAISDSDDSSYYADSVKGRFTISRDNAKNTVYLQMNSLKPEDTAVYYCAAEGDIGGDDYYWGQGTQLTVSS | high polyreactivity |
| QVQLVESAGGLVQAGGSLRLSCAASGRIFWGNAMGWYRQAPGKERELVAAITRRGGTKFYADSVKGRFTISRDNAKNTVYLQMNSLIPEDTAVYYCAARRYGQYDGYDSWGQGTQVTVSS | high polyreactivity |
| QVQLVESAGGLVQAGGSLRLSCAASGRILFGYAMGWYRQAPGKERELVADITSTGSTNYADSVKGRFTISRDNAKNTVYLQMNSLKPEDTAVYYCNVDDTSWTTSGGRFGQVESDYWGQGTQVTVSS | low polyreactivity |
| QVQLVESAGGLVQAGGSLRLSCAASGRTFGRYAMGGYRQAPGKERELVAGISGSVGITYYADSVKGRFTISRDNAKNTVYLQMNSLKPEDTAVYYCAVVARAGHKYDYWGQGTQVTVSS | low polyreactivity |
| QVQLVESAGGLVQAGGSLRLSCAASGRTFGYYAMGWYRQAPGKERELVAAISSGGSTNYADSVKGRFTISRDNAKNTVYLQMNSLKPEDTAVYHCAAKAWYYPGRRNYYQYYYWGQGTQVTVSS | high polyreactivity |
| QVQLVESAGGLVQAGGSLRLSCAASGRTFKYYAMGWYRQAPGKERELVAAITSTGGSTYYADSVKGRFTISRDNEKNTVYLQMNSLKPEDTAVYYCNRYTQYRDRSDNHWGQGTHVTVSS | high polyreactivity |
| QVQLVESAGGLVQAGGSLRLSCAASGRTFRKYAMGRYRQAPGKERELVAAISSSGGSTFYADSVKGRFTISRDNAKNTVYLQMNSLKPEDTAVYYCAAEALRRYSFGYWGQGTQVTVSS | low polyreactivity |
| QVQLVESAGGLVQAGGSLRLSCAASGRTFTDYVMGWYRQAPGKESELVAAITSGGGTTYYADSVKGRFTISRDNAKKTVYLQMNSLKPEDTAVYYGNAVSYRRSRYWGYVYWGQGTQVTVSS | high polyreactivity |
| QVQLVESAGGLVQAGGSLRLSCAASGRTIDSYTMGWYRQAPGKERELVASISKRGGSTYYADSVKERFTISRDNAKNTVYLQMNSLKPQDTAVYYCATKSYYVSYYRYRVDYWGQVTQVTVSS | high polyreactivity |
| QVQLVESAGGLVQAGGSLRLSCAASGSIFDDYAMGWYRQAPGKERELVAAISDSGGSTSYADSVKGRFTISRDNAKNTVYLQMNSLKPEDTAVYYCNADRDDDYDYWGQGTQVTLSS | low polyreactivity |
| QVQLVESAGGLVQAGGSLRLSCAASGSIFERNVIGWYRRAPGKERELVPRISTSGGSTTYYADSVKGRFTISRDTAKNTVYLQMNSLKPEDTAVYYCAAGRGYWWWYGYDYWGQGTQVTVSS | low polyreactivity |
| QVQLVESAGGLVQAGGSLRLSCAASGSIFGPYAMGWYRQAPGKERELVAVISSGDSTNYADSVKGRFTISRDNAKNTVYLQMNSLKPEDTAVYYCATRYLLYRGGHTLFYHFDYWGLGTQVTVSS | low polyreactivity |
| QVQLVESAGGLVQAGGSLRLSCAASGSIFGSYAMGGYRQAPGKERELVAAIYSSGGSTYYADSVKGRFTISRDNAKNTVYLQMNSLKPEDTAVYYCNKYVRYGDGYWGQGTQVTVSS | high polyreactivity |
| QVQLVESAGGLVQAGGSLRLSCAASGSIIYYNAMGWYRQAPGKERELVAAITGSGGSTYYADSVKGRFTISRDNAKNTVYLQMNSLKPEDTAVYYCAADYSLYGWWFRNDYWGQGTQVTVSS | low polyreactivity |
| QVQLVESAGGLVQAGGSLRLSCAASGSILPSNAMGWYRQATGKERELVAGLSERGSSTYYADSVKGRFTISRDNAKNTVYLQMNSLKPEDTAVYYCAADDVGRYWSSTHNWARGEYWGQGTHVTVSS | low polyreactivity |
